Source: article PMC6910952 (Nature Communications, 2019)
Where a chain is given by its changes, count along the chain named.

Columns and labels:
Assay in all cases: pull-down; GST-yNpl4 (0.5 μM, wild type or mutant) on Glutathione Sepharose 4B beads, 1 h at room temperature with 0.5 μM yUfd1, 3 μM Cdc48 (0.5 μM hexamer) and 1 μg K48 chains in 100 μL 50 mM Tris-HCl pH 7.5, 100 mM NaCl, 10% glycerol, 0.1% Triton X-100; chains detected by anti-Ub immunoblot, proteins by Ponceau S
Details in all cases: both partners purified
GST-yNpl4 M574A = molecular target: T1, GST-yNpl4 M574A (Saccharomyces cerevisiae, UniProt P33755 1-580, M574A)
T1 construct: Npl4 of Saccharomyces cerevisiae (yNpl4), full length; source: E. coli Rosetta (DE3) (pGEX-6P1), purified (Glutathione Sepharose FF, Resource Q); not shown: GST, N-terminal, kept
T1 sequence (looked up): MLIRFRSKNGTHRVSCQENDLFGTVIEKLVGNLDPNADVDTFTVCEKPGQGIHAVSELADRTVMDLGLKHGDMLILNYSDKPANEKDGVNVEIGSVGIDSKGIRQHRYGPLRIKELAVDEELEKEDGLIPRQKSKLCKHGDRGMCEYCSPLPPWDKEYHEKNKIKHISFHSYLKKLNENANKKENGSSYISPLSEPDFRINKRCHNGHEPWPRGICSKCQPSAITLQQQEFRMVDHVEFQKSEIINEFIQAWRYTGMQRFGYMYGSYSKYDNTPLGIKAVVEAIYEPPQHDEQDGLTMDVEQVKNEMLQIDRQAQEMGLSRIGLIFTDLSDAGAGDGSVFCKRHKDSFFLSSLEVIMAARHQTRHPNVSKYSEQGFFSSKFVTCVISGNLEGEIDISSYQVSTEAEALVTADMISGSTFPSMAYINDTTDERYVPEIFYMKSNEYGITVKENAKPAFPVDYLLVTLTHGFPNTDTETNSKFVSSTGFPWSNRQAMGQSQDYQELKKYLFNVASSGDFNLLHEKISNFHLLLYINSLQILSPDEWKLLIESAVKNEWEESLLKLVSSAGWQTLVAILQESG

GST-yNpl4 T571A = molecular target: T2, GST-yNpl4 T571A (Saccharomyces cerevisiae, UniProt P33755 1-580, T571A)
T2 construct: Npl4 of Saccharomyces cerevisiae (yNpl4), full length; source: E. coli Rosetta (DE3) (pGEX-6P1), purified (Glutathione Sepharose FF, Resource Q); not shown: GST, N-terminal, kept
T2 sequence (looked up): T1 sequence (looked up) with T571A, A574M

GST-yNpl4 A494F = molecular target: T3, GST-yNpl4 A494F (Saccharomyces cerevisiae, UniProt P33755 1-580, A494F)
T3 construct: Npl4 of Saccharomyces cerevisiae (yNpl4), full length; source: E. coli Rosetta (DE3) (pGEX-6P1), purified (Glutathione Sepharose FF, Resource Q); not shown: GST, N-terminal, kept
T3 sequence (looked up): T1 sequence (looked up) with A494F, A574M

Measured: binding result

B1: yUfd1 (full length, untagged) (natural protein, Saccharomyces cerevisiae, UniProt P53044 1-361, looked up)
chain: MFSGFSSFGGGNGFVNMPQTFEEFFRCYPIAMMNDRIRKDDANFGGKIFLPPSALSKLSMLNIRYPMLFKLTANETGRVTHGGVLEFIAEEGRVYLPQWMMETLGIQPGSLLQISSTDVPLGQFVKLEPQSVDFLDISDPKAVLENVLRNFSTLTVDDVIEISYNGKTFKIKILEVKPESSSKSICVIETDLVTDFAPPVGYVEPDYKALKAQQDKEKKNSFGKGQVLDPSVLGQGSMSTRIDYAGIANSSRNKLSKFVGQGQNISGKAPKAEPKQDIKDMKITFDGEPAKLDLPEGQLFFGFPMVLPKEDEESAAGSKSSEQNFQGQGISLRKSNKRKTKSDHDSSKSKAPKSPEVIEID
notes: Ufd1 of Saccharomyces cerevisiae (yUfd1), full length; codon-optimized synthetic cDNA; removal of GST by HRV3C is surmised; also called untagged Ufd1; source: E. coli Rosetta (DE3) (pGEX-6P1), purified
binds: GST-yNpl4 M574A | GST-yNpl4 T571A | GST-yNpl4 A494F
